# B1: FAM-37 bp DNA (dsDNA)
# DNA 1: TAAAGTCTAGAGACACGCATAGTCAATGACGGAGTTA
# DNA 2: TAACTCCGTCATTGACTATGCGTGTCTCTAGACTTTA
# How the values were obtained:
# [1] = molecular target: StGyrA-CTD R716A R716A (Salmonella enterica serovar Typhi CT18) (UniProt A0A1U7FVV6); test: fluorescence binding
# [2] = molecular target: StGyrA-CTD R667A R667A (Salmonella enterica serovar Typhi CT18) (UniProt A0A1U7FVV6); test: fluorescence binding
# [3] = molecular target: StGyrA-CTD R766A R766A (Salmonella enterica serovar Typhi CT18) (UniProt A0A1U7FVV6); test: fluorescence binding
# [4] = molecular target: StGyrA-CTD R817A R817A (Salmonella enterica serovar Typhi CT18) (UniProt A0A1U7FVV6); test: fluorescence binding
# [5] = molecular target: StGyrA-CTD R712A R712A (Salmonella enterica serovar Typhi CT18) (UniProt A0A1U7FVV6); test: fluorescence binding
# [6] = molecular target: Salmonella enterica serovar Typhi DNA Gyrase A C-terminal domain (StGyrA-CTD) (Salmonella enterica serovar Typhi (CT18 strain)); test: SEC
# StGyrA-CTD R612A = StGyrA-CTD R612A (Salmonella enterica serovar Typhi CT18, UniProt A0A1U7FVV6 530-840, R612A); test: fluorescence binding; 1 mM Mg2+; text gives 220-250 nM for other mutants; details: protein: recombinant; tags: C-terminal 6xHis; blunt
# StGyrA-CTD D692A = StGyrA-CTD D692A (Salmonella enterica serovar Typhi CT18, UniProt A0A1U7FVV6 530-840, D692A); test: fluorescence binding; 1 mM Mg2+; details: protein: recombinant; tags: C-terminal 6xHis; blunt
# StGyrA-CTD wild type = StGyrA-CTD wild type (Salmonella enterica serovar Typhi CT18, UniProt A0A1U7FVV6 530-840); test: fluorescence binding; 1 mM Mg2+; details: protein: recombinant; tags: C-terminal 6xHis (pET-28a); chain copies: 2; blunt
molecule,measurement,setting,value
TAAAGTCTAGAGACACGCATAGTCAATGACGGAGTTA (double strand) [FAM-37 bp DNA],Kd,[1],277 nM
same,Kd,[2],263 nM
same,Kd,[3],221 nM
same,Kd,[4],204 nM
same,Kd,[5],231 nM
Salmonella enterica serovar Typhi DNA Gyrase A C-terminal domain (StGyrA-CTD) (domain or fragment),stoichiometry N,[6],2
B1,Kd,StGyrA-CTD R612A,135 nM
same,Kd,StGyrA-CTD D692A,129 nM
same,Kd,StGyrA-CTD wild type,122 nM
